Consider 18 sequences from the DeepSol protein solubility set.

The data set is described as follows: soluble on expression in E. coli; label from the status in PepcDB or PDB records.
With “MSELSQLSPQPLWDIFAKICSIPHPSYHEEQLAEYIVGWAKEKGFHVERDQVGNILIRQPATAGMENRKPVVLQAHLDMVPQKNNDTVHDFTKDPIQPYIDGEWVKARGTTLGADNGIGMASALAVLADENVVHGPLEVLLTMTEEAGMDGAFGLQSNWLQADILINTDSEEEGEIYMGCAGGIDFTSNLHLDREAVPAGFETFKLTLKGLKGGHSGGEIHVGLGNANKLLVRFLAGHAEELDLRLIDFNGGTLRNAIPREAFATIAVAADKVDALKSLVNTYQEILKNELAEKEKNLALLLDSVANDKAALIAKSRDTFIRLLNATPNGVIRNSDVAKGVVETSLNVGVVTMTDNNVEIHCLIRSLIDSGKDYVVSMLDSLGKLAGAKTEAKGAYPGWQPDANSPVMHLVRETYQRLFNKTPNIQIIHAGLECGLFKKPYPEMDMVSIGPTITGPHSPDEQVHIESVGHYWTLLTELLKEIPAK”, the “soluble on expression in E. coli” value is reported as “not soluble”.
On to “MKILLFICGEGLGHTGRCLALGKEFLAAGHEVNFGAYGYSKGLVQKTGYSAYEIPSEIKLAGEAGTFDIRKSIKETLNNLSPSGFRKILRLIEKLDPDVVLSDGYYTGILAAQKRKVPVYFIGHQFNMEEFFWKKGLFAGIAGIFVKRFYNYVFSSVDGIIVPDYPLPYSVNRKNFTISRAVNDNIFFSGPLIRCRYQEAGEKAFKRPNVLSTIGAFGYRAAVFRNVLEAAKLDPSIYYTFISGPEIDPEQFSKVPENVEFTGFTENPFPYYKGSDLVITAGGHGTIMESLAFGLPILSFPDEKHAEQENNASVLEEAGYGKRMSYLTPPEVILACIREIFEDENYSKKTRRLMELAEVLDGPAAVRKFLEEKHRGLEHHHHHH”, for which the “soluble on expression in E. coli” value was “not soluble”.
The result for “MSKLCKEFSLSATVKNISRFVDEEIYYTDTEERFNIPWRMCIAKCDDEFSLGLKCEKNNWDNREWSIETDWTMKLVSHNGKSLMESKKFTFNNSNIFDGGLNTSWDLLESDYVVDDSVVVEAHVKIIKITDLPCDEDEDSKTFLLSSTVRNISSIEEGDDYYTETTIRHNIPWRMQIKRDDGFFGLFLRCEKEDCEDPGKSWSIELDYELRLVSLNGQSLTFSDSDLFIYPSGEGFQKFMRWDDMEEKYMVNGSIIIEARGKITSLEESDDESSSENEEDDSSESHSENDSSSDNLEDEFSECVINVGGQNYTVKKQ” reads “not soluble”; that for “MARMNRPAPVEVTYKNMRFLITHNPTNATLNKFIEELKKYGVTTIVRVCEATYDTTLVEKEGIHVLDWPFDDGAPPSNQIVDDWLSLVKIKFREEPGCCIAVHSVAGLGRAPVLVALALIEGGMKYEDAVQFIRQKRRGAFNSKQLLYLEKYRPKMRLRFKDSNGHRNNCCIQ”, “soluble”.
As to “AAAAAAMTMMDMNFKYCHKIMKKHSKSFSYAFDLLPEDQRKAVWAIYAVCRKIDDSIDVYGDIQFLNQIKEDIQSIEKYPYEYHHFQSDRRIMMALQHVAQHKNIAFQSFYNLIDTVYKDQHFTMFETDAELFGYCYGVAGTVGEVLTPILSDHETHQTYDVARRLGESLQLINILRDVGEDFENERIYFSKQRLKQYEVDIAEVYQNGVNNHYIDLWEYYAAIAEKDFRDVMDQIKVFSIEAQPIIELAARIYIEILDEVRQANYTLHERVFVEKRKKAKLFHEINSKYHRI”, the “soluble on expression in E. coli” value is on record as “soluble”.
With “MDKKPSKKKVAIIGGGVAGSTIAMYLSKFDIEIDLFEQGTSLVNGPPICHLHAGGNLYREISDEQCIALLTESIQTAQFFPHSLNIRPTIIAVPKDDRAEASDLLPRLNLLQKHYLELIEQSKKNEVFGRPEDYFTTFTKQELFEIAKLEPTNQPRSMTEWMIPFAKTTDLEQIKYPVVIVQEYGLSVFRMASTAQLVLSEQSNVNLHLSCRVEKLNKQDNGNWFLSFSNSDTVTSCNFDYVINCAGFRTGIIDDLAQQQTKRLVEFKAAYVTHWNSDFFGKWPEVIFHGERGTPKGMAQLTPYPNGYFQLHGMTEEITLFKDGLSRSSELSSQPQLPEKFINKITNGWKESIQQERTEKAIKHLSQFISSFETASTAGKPLYGAQQIPGDDITLRAATINYDGHGYFRAEIVKASSAIECAKQIAQTIKLSTEINTLTQPSNDDVCHLAEQFAIERGYPVELAQTYLEHHHHHH”, the “soluble on expression in E. coli” value was “not soluble”.
Turning to “MEKRITTPLTDEVVKSLRAGDKVLITGYIYTARDAAHKRMVEAIQRGEKPPIDLKGQIIYYVGPTPPKPGQVIGSAGPTTAIRMDKYVEPLLKLGLKGMIGKGYRSPQVKELLKKYKAVYFAAVGGVATLLQKHIKSSELIAYEDLGTEAIRRLYVEDFPVIVANDAFGGDVFEEGRKKYAKIDV”, the “soluble on expression in E. coli” value is on record as “soluble”.
The value for “MPRRNPLWLRLPGSSSPSSSSTTEELRLAALSPYSPNDDISSIPDSLEHSPAKTSDDGSEISRANFSSPSSPSRSPSKKVSWSLFDQVSLSGEEFLLPRRFEAIELNAGTSTRSTSISCSATDLLESDHVTIRKISLQDPATARREYRNIILCRLLPHPNILPISEAYEVDSTLYTVSEQMDGRLSDIVEERLTHFVVAKISHQILAAVAMMHQNGIAHGDLTLSTIYVNTDAELRLSSYGKSDDSSEHLDERYRDDLLSIGAIVSRFLMNEEEMFKFSKSRNLKDIDWRVVLEGSSDSGLLDFNARSLLFQLLEGRQSARDLLRHPYFKSFRAPQHQTVERKHTVVGQKTSDEVLDKLREELQRFNPFNMSEIML” was “not soluble”.
In the case of “MSKNRQIQGCEVNECLHLDSTKPKSMLNKVKSVHSGFLGEPCVSVCCVCASSPVFLRRYFEWQPFSPREPHVWSTDRPLKVIDLTHLLFTEQMSDCVLGCTPQHCRLQSPVFARDTVLEVEVLLYSSLRFAHCSVDTRRPAFCSL”, the “soluble on expression in E. coli” value was “not soluble”.
“MNFEDVFREFGELWYDIEFVLTTVIKTKNVTPILTLSGEFCVPGIHALYNIFHIMISVLRIFQKVKHDTWHLVTDYVNILETRLKPFERTPCFITNTALETIIQELCEYWRMLENVPCKDIRSIEGARFTENDWKNELIRIGLSDIFPELVEFFDAGYQVLLNIAQNGDTLKTSDLICHLESTQAFCFSSRFKFLEVASDIQQGIYPKFRNSVNVFIGIASKSESLLPHLKARSRYEGILSAMQVDKQLVPPPIQICHKLIIDAETVSNPTPVPQQLEKKTENCSECSDVRMEMYTVKDVLQNVQKQLKNMQQNSEQFETKLVASDNKTKNFEKQLEDERRKNNKHLESSRKTLISKNEQLEALKRRATALSNCQAENQTLKFKIAEHHDLEKQLNISNKDVTQARDQLSGQISELEIQLKSELKNVEHLNKEHKKAIDLANEISKLKTEIERETSISKQLEKEISQLRTETDEMNIVITQSLEMENLQLRDVTKKFETENASLLKTNQQLSIQNEEQKRLIQVLLEKQQTAPSSSDFPVPSTQMTDNEENSRQQLWKYQKIKDSFRDGMKLRKAEAMVKKLTSLDRDLGVHQMAHRELENFKKLTSYYLQAIEMNIPKIKNNGSSDLEQLPEAPKFSNEFMRFYRNATGKQPLTSSSSSSANPRSTHIEGSSISTMPSTSSRGNVQHHSGSAVRGQSITPTGLSQVPMSPRKLFSQPDIVTASVPSTELDDTECAICLDEMTNFKETIKCECRRRFHLKCATKWLNEKRECPTCRKLLLNPADYPPLN”: the “soluble on expression in E. coli” value was “not soluble”.
Turning to “MKVWIKASALLTLAGLTACSASPTGRNQILMFSDQEMSSLGAKSFDQMKKDIPISKDKKTNAYVQCVAKQITNAIPPQAGFKDWEVVVFDSDQVNAFALPGGKIGVYTGLLKVAKNQDQLATVIGHEVAHVLAEHSNERLSQSQLANAGLSLANVAIGASEYKQYQQLTMAALGVGVQYGVILPYGRTQESEADIVGLEYMAKAGFNPNQSVDLWKNMSAASGGAQPPEFFSTHPSHSTRIKDLQATINKLPKYNVKAPKCGLEHHHHHH”, the “soluble on expression in E. coli” value was “not soluble”.
Regarding “MDEGVKEKFIGAVLGAAVGDALGKSVEDITEEEVFEFYGDRIRDFVTPHPSSPAYGQLPEETSDETTIFRLLLESLVEKKALDVRDFLNRLMEWYDREEMHRYPDPMLLTAIDLLSRGINPSTHGLTSFSVEGILRSVALGLYHYYNPELAAEGSKVVSLLTHRSDVISDASAILGALIAHLVRGDFYLEDFREKLRLIETLKDYAKEEKHKKILDRVAELLMESADLETAINTLGNGTFAFEAFPLALYIFLSNVENPEEALFQAVNSYGEFGGDTDAIGFLVGAMLGAYYGEEAIPYHLRENVENSQKLRELAERLYEVVEKQVGFSQ”, the “soluble on expression in E. coli” value is recorded as “not soluble”.
The result for “MGTTLEVLRTGPLALVEDLGRPGLAHMGVTRSGAADRRSHTLANRLVANPGESATIEVTFGGFSARVCGGDVAIAVTGADTDPAVNGIPFGTNSIHHVHDGQVISLGAPHSGLRSYLAVRGGIDVTPVLGSRSYDVMSAIGPSPLRPGDVLPVGEHTDEFPELDQAPVAAIAEDVVELQVVPGPRDDWFVDPDILVRTNWLVTNRSDRVGMRLVGMPLEYRNPDRQLPSEGATRGAIQVPPNGFPVILGPDHPVTGGYPVIGVVTEEDIDKLGQVRPGQTVRLHWAYPRRPFETLESGKETAAAKFERQHMDSSTSAA” reads “soluble”; that for “MSLAEASTVETEFAARVQEFYHDQSDPIQLVVAFKALCAVKALLAAANLEEHGAKSSYFQEEFENWDLETKLWHLVEVLYLYRLAENEEVIAENQYSSISVLQENVLRQNPKLKELLIILGWLQTNSKGVDVPGSLSNTSKWSNTRQALANKDLNVLTTHGHTGETDTKLQNIDPDAPIRQACPVMAEDDLRDSQVFRTIYQLILSGQLQEAIELASSTGNHTLALILLGGTQDFIDPVLDKDFCETTMTDLIVPNKPSGAKHKLLWKQAVFKLSHQLGINKYERLIYDYLSGGDISGGLEVVGDSWENLLIIYLNKICLHVLLNALNSNESTTSIPAPPAESIDQVLNLISKGSNGAAQQSKHPLRIVMGSVMISEIGALISGVLKSLNNNFTTQKVWEEDYLVRVMAHLGLFAHAVGSQVSANDLTQLLTLYVQRLSARGFTDLVPLYLSFIPDDSDAREYYSKFLSSITDPSERTKQLQLVRKLGIDSNGDEERMANVLRRTVERVMADTEAEGHHHHHH”, “soluble”; that for “VARADESLQQVVMAYFGVQFKSEQKAIALKAMQHIVQSFSLDNGPQNHDITHHTDNQGYENYIVVGYWRDPGAYCRWFRSTEVSHWWDSDERLNDGIGYFREIVIPRADQFETLYAFKEDLPGVGAVMDDISDDIQEHGYWGSARERF”, “not soluble”.
In the case of “MGSDKIHHHHHHMFSLFETFIVVYETKSFTLAGKYLFISQPTVTVRIKKLEEELKSTLFLRGKHQEIIPTEAAILFYPKAIAYLKKWEEDQAEVQKKSLAKHPFKIGVSHSAALSIMPGIFKVFEGELEHLDVEINMYDSEKVFELVANHDLHFGIIERLLISDQTETFPLFLDELVLAGNTDSETFFTRESGSGIGYYIKRYLKSAPSAQRNIVRMNSNEMIISHIKAGLGSSLISKSFLTDDIPYQELGSNYHREFLGVSFDEEKDPMIQKLISKIKKETEIH”, the “soluble on expression in E. coli” value is “not soluble”.
For “MTADLPDEIDETPLDGEYAHDSSPTLLYAIKQVELAIRSHMDALLRPMGITALQYTALTVLRRRDGLSSAELARNSFVTAQTMGEMLSALERRGLVTRRVDPANRRRMLTSLTADALDLLAEYDTSICGLEEQMLADMSVRQRDAFRGYLGRCRIALAETPAH”, the “soluble on expression in E. coli” value is listed as “not soluble”.
In the case of “GPGSMPERMTAALAARLVASPLKYVLLDIDGVIWCGGHVIDRVPETLQYLRGQGKQIRFLSNNASFSREQLMQSLKAKGIEGVTVEECYNSAYTAALRLRQMLGKADVPGEEPLVHGNVFVIGEQGLHDELQQVLAPGFITYGVELHDAVRAGGYDTDALGSAWRVPCLPPPQKRLVVCNGKACRMVQAGTNSAEKISLSDLNAAAVVVGLDKHFNIVKLAYGSLVLQGPPKDLREESYTPPLFVATNEDPQLPVGRDGTMIPGAGSMVSALCTAVGKRPDAVCGKPHKDMANILFAAEGVTNPREECIMIGDRLTTDVAFGNAAGCQSMLVLSGAEGLADVEEAEKQGRTALVPKYVAESLACFLPL”, the “soluble on expression in E. coli” value was “soluble”.
